30 sequences from the nanobody polyreactivity screen of Harvey et al. (2022) can be followed below.

A short description of this data set: yeast display, Sf9 membrane polyspecificity reagent, FACS + sequencing; frameworks hold sequencing errors. In a few lines: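 A nanobody's polyreactivity label depends on the gate it was sorted from. Yeast display cells were stained with 10% biotinylated, detergent-solubilized Sf9 membrane reagent for 1 hour at 4 °C, enriched on streptavidin microbeads and sorted by FACS. The low and high (top ~1%) gates were set on anti-HA fluorescence for expression and streptavidin fluorescence for reagent binding.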
Regarding “QVQLVESGGGLVQAGGSLRLSCAASGITFDVYAMGWYRQAPGKERELVAAISSVGGTYYADSVKGRFTISRDNAKNTVYFQMNSLKPEDTAVYYCNTDGYVGSIRSGLYIYEYWGQGTQVTVSS”, the “polyreactivity (PSR sort gate)” value was “low polyreactivity”.

Regarding “QVQLVESGGGLVQAGGSLRLSCAASGITFDVYAMGWYRQAPGKERELVAAISSVGGTYYADSVKGRFTISRDNAKNTVYLQMNSLKPEDTAVYYCNTDGYVGSIRSGLYIYDYWGQGTQVTVSS”, the “polyreactivity (PSR sort gate)” value is “low polyreactivity”.

For “QVQLVESGGGLVQAGGSLRLSCAASGITFDWNAMGWYRQAPGKERELVAAISSGASTYYADSVKGRFTISRDNAKNTVYLQMNSLKPEDTAVYYCAKRHAINIHAVGPYYTSMDYWGQGTQVTVSS”, the “polyreactivity (PSR sort gate)” value is reported as “low polyreactivity”.

For “QVQLVESGGGLVQAGGSLRLSCAASGITFDYYGMGWYRQAPGKERALCASITSGGSTNYADSVKGRFTISRDNAKNSVYLQMNSLKPEDTAVYYCAADGYGGYYRGTYYTVYFWGQGTQVTVSS”, the “polyreactivity (PSR sort gate)” value is reported as “low polyreactivity”.

In the case of “QVQLVESGGGLVQAGGSLRLSCAASGITFDYYPMGWYRQEPGKERELVAVITWSVGSTKYADSVKGRFTISRDNAKNTVYLLMNRLKPEETAVYNCNPRPPRWVRSMDYWGHGTQVTVSS”, the “polyreactivity (PSR sort gate)” value is listed as “high polyreactivity”.

As to “QVQLVESGGGLVQAGGSLRLSCAASGITFEGYAMGWYRQAPRKERELVAAITGSGSTTYYADSVKGRFTISRDNAKNTVYLQMNSLKPEDTAVYYCAADVSYKLYWGQVTQVTVSS”, the “polyreactivity (PSR sort gate)” value is “low polyreactivity”.

Take “QVQLVESGGGLVQAGGSLRLSCAASGITFELYAMGLYIQAPGKERELVAAISSNGGITFYADSVKGRFTISRDNAKNTVYLQMNSLKTEDTAVYYCAARGYIRGPSKLDYWGQGTQVTVSS”: the “polyreactivity (PSR sort gate)” value is recorded as “high polyreactivity”.

In the case of “QVQLVESGGGLVQAGGSLRLSCAASGITFEVYAKGWYRQAPGKERELVAVITSVGSTNYADSVKGRFTISRDNAKNTVYLQMNSLKPEDTAVYYCAAEKWTVRRFNPYTYYRYDYWGQGTQVTVSS”, the “polyreactivity (PSR sort gate)” value is “low polyreactivity”.

“QVQLVESGGGLVQAGGSLRLSCAASGITFEYYDMGWYRQAPGKERELVAAISWSTDITYADSVKGRFTISRDNAKNTVYLQMNSLKPEDTAVYYCAASTYEYTSYDYWGHGTQVTVSS”: the “polyreactivity (PSR sort gate)” value was “low polyreactivity”.

Take “QVQLVESGGGLVQAGGSLRLSCAASGITFFGYAMGWYRQAPGKERELVAAISTRGGSTYYADSVKGRFTISRDNAKNTVYLQMNSLKPEDTAFYYCNKEYYHKWAPTYDYWGQGTQVTVSS”: the “polyreactivity (PSR sort gate)” value is recorded as “low polyreactivity”.

As to “QVQLVESGGGLVQAGGSLRLSCAASGITFGANAMGWYRQAPGKERELVADITWSGGDTYYADSVKGRFTISRDTAKNTVYLQLHSLKPEDTAVYYCAVDTYIYTNRRYTKFDYWGQGTQVTVSS”, the “polyreactivity (PSR sort gate)” value is listed as “low polyreactivity”.

Regarding “QVQLVESGGGLVQAGGSLRLSCAASGITFGDYAMGWYRQAPGKEMEMVAGINWSGDGTYYADSVKGRFTISRDNAKNTVYLQMNSLKPEDTAVYYCNARGIPLYSYRDYRFVVLNFDYWGQGTQVTVSS”, the “polyreactivity (PSR sort gate)” value is recorded as “low polyreactivity”.

In the case of “QVQLVESGGGLVQAGGSLRLSCAASGITFGDYAMGWYRQAPGKERELVAAISKRGGSTYYADSVKGRFTISRDNAKNTVYLQMNSLKPEDTAVYYCAADYYINAYYYWGQGTQVTVSS”, the “polyreactivity (PSR sort gate)” value is given as “high polyreactivity”.

Turning to “QVQLVESGGGLVQAGGSLRLSCAASGITFGDYAMGWYRQAPGKERELVAAISKRGGSTYYAESVKGRFTISRDNAKNTVYLQMNSRNPEDTAVYYCAADYYSKAYYYWGQGTQVTVSS”, the “polyreactivity (PSR sort gate)” value is given as “high polyreactivity”.

With “QVQLVESGGGLVQAGGSLRLSCAASGITFGGNAMGWYRQAPGKERELVAAISGRGGRTYYADSVKGRFTISRDTAKNTVYLQMNSLKPEDTAVYYCAGGGRVRYDYWGQGTQVTVSS”, the “polyreactivity (PSR sort gate)” value is “low polyreactivity”.

In the case of “QVQLVESGGGLVQAGGSLRLSCAASGITFGGYALGWYRQAPGKEREFVAGISSSGRSTYYADSVKGRFTISRDNAKNTVYLQMYSLKPEDTAVYYCAVYRVRKVYVLRGPFYYWGQGTQVTVSS”, the “polyreactivity (PSR sort gate)” value is “high polyreactivity”.

In the case of “QVQLVESGGGLVQAGGSLRLSCAASGITFGHYTMGWYRQAPGKERELVAAISWSGGSTYYADSVKGRFTISRDNAKNTVYLQMNSLKPEDTAVYYCNRVKPVIASYDSDYWGQGTQVTVSS”, the “polyreactivity (PSR sort gate)” value is listed as “low polyreactivity”.

“QVQLVESGGGLVQAGGSLRLSCAASGITFGINAMGWYRQAPGKERELVAAITSGGSTYYADSVKGRFTISRDNAKNTVYLQMNSLKPEDTAVYDCAADYQYFVYCEYDYWGQGTQVTVSS”: the “polyreactivity (PSR sort gate)” value is listed as “low polyreactivity”.

“QVQLVESGGGLVQAGGSLRLSCAASGITFGIYVMGWYRQAPGKERELVATISRSDDNTYYADSVKGRFTISRDNAKNTVYLQMNSLKPEDTAVYYCAADGVISAWYSSRDDYWGQGTQVTVSS”: the “polyreactivity (PSR sort gate)” value was “low polyreactivity”.

For “QVQLVESGGGLVQAGGSLRLSCAASGITFGKNALGWYRQAPGKERELVATIRRSGGSTYADSVKGRFTISRDNAKNTVYLQMNSLKPEDTAVYYCNARSWNTYNYWGQGTQVTVSS”, the “polyreactivity (PSR sort gate)” value is “high polyreactivity”.

With “QVQLVESGGGLVQAGGSLRLSCAASGITFGLYAMGWYRQAPGKEREFVAAISRRGGSTSYADSVKGRFTISRDNAKNTVYLQMNSLKPEDTAVYYCDTSYRRTVGGYTYYWGQGTQVTVSS”, the “polyreactivity (PSR sort gate)” value is given as “high polyreactivity”.

For “QVQLVESGGGLVQAGGSLRLSCAASGITFGRNAMGWYRQAPGKERELVAAISRGGSTNYADSVKGRFTISRDNAKNTVYLQMNSLKPEDTAVYYCNARSWPHGSWIPIHRRYGYWGQGTQVTVSS”, the “polyreactivity (PSR sort gate)” value is reported as “high polyreactivity”.

In the case of “QVQLVESGGGLVQAGGSLRLSCAASGITFGRNTMGWYRPAPGKERELVAAIDSGGNTYADSVKGRFTISRDNAKNTVYLQMNSLKPEDTAVYYCAVDGGEFSSYGYWGQGTQVTVSS”, the “polyreactivity (PSR sort gate)” value is reported as “low polyreactivity”.

In the case of “QVQLVESGGGLVQAGGSLRLSCAASGITFGRYAMGWYSQAPGKARELVASITVNGGRTYYADSVKGRFTISRDNAKNTVNLQMNSLKPEDTAVSYCAAERRNSYVLLFKYNYWGQGTQVTVSS”, the “polyreactivity (PSR sort gate)” value was “low polyreactivity”.

On to “QVQLVESGGGLVQAGGSLRLSCAASGITFGSNAMGWYRQAPGKERELVAAISRSGGRTYYADSVKGRFTISRDNAKNTVSLQMNSLKPEDTAVYDCATDSYTTGEYWGQGTQVTVSS”, for which the “polyreactivity (PSR sort gate)” value is given as “high polyreactivity”.

On to “QVQLVESGGGLVQAGGSLRLSCAASGITFGSYAMGWYRQAPGKEREFVAAISLSGGNTYYADSVKGRFTISRDNAKNTVYLQMNSRKPEDTAVYYCAADYDYSGYGYWGQGTQVTVSS”, for which the “polyreactivity (PSR sort gate)” value is listed as “high polyreactivity”.

For “QVQLVESGGGLVQAGGSLRLSCAASGITFGTNAMGWYRQAPGKERELVAAITSGVSTYYADSVKGRFTISRDNAKNTVYLQMNSLIPEDTAVYYCAKDVAVYADLYQGDPYGYWGQGTLVTVSS”, the “polyreactivity (PSR sort gate)” value is reported as “low polyreactivity”.

For the sequence “QVQLVESGGGLVQAGGSLRLSCAASGITFGVNTMGWYRQAPGKERELVAAITWRGGSTYYADSVKGRFTISRDNAKNTVYLQMNSLKPEDTAVYYCAAPYDGPVLTVGYDYWGQGTQVTVSS”, the “polyreactivity (PSR sort gate)” value is “low polyreactivity”.

Consider “QVQLVESGGGLVQAGGSLRLSCAASGITFGVNTMGWYRQAPGKERELVAAITWRGGSTYYADSVKGRFTISRDNAKNTVYLQMNSLKPEDTAVYYCAAVDFTREISGVTYGFDYCGQGTQVTVSS”, for which the “polyreactivity (PSR sort gate)” value is listed as “low polyreactivity”.

Regarding “QVQLVESGGGLVQAGGSLRLSCAASGITFGYNTMGWYRQAPGKERELVAAISGSGGRTYYADSVKGRFTISRDNAKNTVFLQMNSLKPEDTAVYYCAARWPIWSSLYDYWGQGTQVTVSS”, the “polyreactivity (PSR sort gate)” value was “high polyreactivity”.
